Consider 2 substances from US20140227786A1.

Like-named read-outs stand apart in the source and are kept apart here. Where only a bound is given, the exact number is not on record here.

Common to all, as to assay: cell-based or functional assay
The target in assay [1] is receptor of ecotropic murine leukaemia virus Rec1 (murine) (UniProt Q09143).
For assay [2] the target is unchanged. The source holds these as a separate data set.
Assay [3] shares this target. This is another data set of the same source.

Sequence of envelope protein of ecotropic Friend murine leukaemia virus molecular clone PVC-211 (P26803 35-676 limits assumed): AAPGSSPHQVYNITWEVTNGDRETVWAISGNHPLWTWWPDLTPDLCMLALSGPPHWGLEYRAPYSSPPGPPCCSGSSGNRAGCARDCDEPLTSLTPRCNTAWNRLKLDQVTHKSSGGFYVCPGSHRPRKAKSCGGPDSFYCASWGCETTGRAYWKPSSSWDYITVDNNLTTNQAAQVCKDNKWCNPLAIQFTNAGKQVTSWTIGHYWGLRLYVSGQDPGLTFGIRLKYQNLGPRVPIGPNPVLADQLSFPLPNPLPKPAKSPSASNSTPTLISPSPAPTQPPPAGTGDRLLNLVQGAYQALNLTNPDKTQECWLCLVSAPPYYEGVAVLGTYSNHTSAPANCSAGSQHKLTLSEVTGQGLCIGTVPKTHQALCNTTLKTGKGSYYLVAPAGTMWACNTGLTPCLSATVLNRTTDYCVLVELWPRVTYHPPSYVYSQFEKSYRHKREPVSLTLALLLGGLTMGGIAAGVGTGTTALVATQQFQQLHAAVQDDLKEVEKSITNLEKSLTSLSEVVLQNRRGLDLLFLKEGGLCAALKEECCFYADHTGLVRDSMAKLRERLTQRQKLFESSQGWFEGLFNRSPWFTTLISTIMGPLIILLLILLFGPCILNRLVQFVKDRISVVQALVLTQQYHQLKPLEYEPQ
Sequence of receptor of ecotropic murine leukaemia virus Rec1 (murine) (Q09143 whole entry): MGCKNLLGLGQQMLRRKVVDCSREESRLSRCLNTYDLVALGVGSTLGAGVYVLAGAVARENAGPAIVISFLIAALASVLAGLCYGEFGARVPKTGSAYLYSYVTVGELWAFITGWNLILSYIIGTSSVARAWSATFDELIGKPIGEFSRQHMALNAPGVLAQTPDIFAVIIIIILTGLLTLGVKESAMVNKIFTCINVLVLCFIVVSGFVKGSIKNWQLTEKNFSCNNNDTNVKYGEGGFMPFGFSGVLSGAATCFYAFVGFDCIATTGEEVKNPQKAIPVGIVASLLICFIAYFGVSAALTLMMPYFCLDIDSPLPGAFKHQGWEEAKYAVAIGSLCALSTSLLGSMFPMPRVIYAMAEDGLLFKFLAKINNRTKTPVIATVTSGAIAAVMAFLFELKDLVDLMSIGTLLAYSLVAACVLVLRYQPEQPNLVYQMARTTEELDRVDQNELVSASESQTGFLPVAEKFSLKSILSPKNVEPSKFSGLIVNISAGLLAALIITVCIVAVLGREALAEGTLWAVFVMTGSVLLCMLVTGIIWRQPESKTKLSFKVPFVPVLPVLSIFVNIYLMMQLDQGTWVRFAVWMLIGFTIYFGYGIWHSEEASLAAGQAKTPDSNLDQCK
Sequence of wild type envelope of ecotropic Moloney murine leukaemia virus (P03385 34-665 limits assumed): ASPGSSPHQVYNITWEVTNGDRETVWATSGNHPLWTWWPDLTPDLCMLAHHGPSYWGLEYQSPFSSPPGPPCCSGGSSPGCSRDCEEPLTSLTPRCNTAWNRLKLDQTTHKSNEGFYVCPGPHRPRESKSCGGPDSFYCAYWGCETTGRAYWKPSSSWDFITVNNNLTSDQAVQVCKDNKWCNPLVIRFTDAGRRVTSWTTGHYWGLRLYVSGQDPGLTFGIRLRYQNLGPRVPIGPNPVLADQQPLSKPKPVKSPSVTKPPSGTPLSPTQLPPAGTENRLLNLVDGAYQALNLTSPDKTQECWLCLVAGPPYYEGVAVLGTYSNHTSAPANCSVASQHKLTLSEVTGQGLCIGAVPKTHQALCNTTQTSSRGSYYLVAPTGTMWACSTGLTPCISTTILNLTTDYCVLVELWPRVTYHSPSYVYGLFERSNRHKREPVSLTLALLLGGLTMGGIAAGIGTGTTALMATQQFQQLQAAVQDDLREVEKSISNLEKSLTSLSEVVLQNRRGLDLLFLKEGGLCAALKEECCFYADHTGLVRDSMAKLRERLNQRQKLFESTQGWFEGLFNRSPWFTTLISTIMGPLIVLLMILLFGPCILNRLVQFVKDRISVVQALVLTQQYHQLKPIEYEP

In assay [1], “envelope protein of ecotropic Friend murine leukaemia virus molecular clone PVC-211 (from UniProt P26803 35-676)” gave a transduction efficiency (% GFP positive cells) in CHO T-REx Rec1-I-neo cells of 71.1%, a transduction efficiency (% GFP positive cells) in CHO-K1 Rec1-I-neo cells of 48.3% and a transduction efficiency (% GFP positive cells) in CHO-S Rec1-I-puro cells of 73%. In assay [2], this substance registered a fold gene transfer efficiency, CHO-S Rec1-I-puro cells against CHO-S cells of 13 fold; a fold transduction efficiency in CHO-S Rec1-I-puro cells, MLV (PVC-211 Env) against MLV (wtEnv) vector particles above 33 fold; a puromycin-resistant cell colonies counted in ten fields, CHO-S Rec1-I-neo cells transduced once of 41 colonies; a puromycin-resistant cell colonies counted in ten fields, CHO-S Rec1-I-neo cells transduced three times of 230 colonies. Moreover, in assay [2], the transduction efficiency (% GFP positive cells) in BHK Rec1-I-puro cells came to 31%, the transduction efficiency (% GFP positive cells) in CHO-S Rec1-I-puro cells worked out at 15.5% and the transduction efficiency (% GFP positive cells) in HT1080 Rec1-I-neo cells was found to be 16%. Moreover, the transduction efficiency (% GFP positive cells) in CHO-S Rec1-I-puro cells in assay [3] turned out to be 19%.
As for “wild type envelope of ecotropic Moloney murine leukaemia virus (from UniProt P03385 34-665)”, in assay [1], the transduction efficiency (% GFP positive cells) in CHO T-REx Rec1-I-neo cells amounted to 9.95%, the transduction efficiency (% GFP positive cells) in CHO-K1 Rec1-I-neo cells amounted to 14.7% and the transduction efficiency (% GFP positive cells) in CHO-S Rec1-I-puro cells came out at 12.1%. Moreover, in assay [2], the fold gene transfer efficiency, CHO-S Rec1-I-puro cells against parental CHO-S cells worked out at 3 fold; the fold gene transfer, CHO-S Rec1-I-puro cells against CHO-S cells came out at 3.7 fold; the gene transfer efficiency (% GFP positive cells) in CHO-S Rec1-I-puro cells was 1.14%; the transduction efficiency (% GFP positive cells) in BHK Rec1-I-puro cells was determined as 4.72%. Besides, in assay [2], the transduction efficiency (% GFP positive cells) in CHO-S Rec1-I-puro cells was 0.55% and the transduction efficiency (% GFP positive cells) in HT1080 Rec1-I-neo cells amounted to 0.21%. This substance returned a transduction efficiency (% GFP positive cells) in CHO-S Rec1-I-puro cells in assay [3] of 0.56%.
